We go through one molecule from patent publication US20020169118A1 (Amgen, published 2002).

The assay addresses T1, TNF-β (lymphotoxin) (UniProt P01374 35-205, limits assumed).
T1 sequence (looked up): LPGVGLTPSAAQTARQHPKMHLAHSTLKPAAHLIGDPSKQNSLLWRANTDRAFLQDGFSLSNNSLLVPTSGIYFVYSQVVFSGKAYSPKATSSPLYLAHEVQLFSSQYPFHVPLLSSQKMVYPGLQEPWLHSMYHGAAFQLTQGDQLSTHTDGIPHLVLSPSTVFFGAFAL
Kind of assay: preliminary competition binding tests; reference TNF-α.

B1: TNF-BP (TNF binding protein), natural, purified from dialyzed urine of uraemia patients (receptor)
chain: DSVCPQGKYIHPQNNSICCTKCHKGTYLYNDCPGPGQDTDCRECESGSFTASENHLRHCLSCSKCRKEMGQVEISSCTVDRDTVCGCRKNQYRHYWSENLFQCFNCSLCLNGTVHLSCQEKQNTVCTCHAGFFLRENECVSCSNCKKSLECTKLCLPQIEN
modifications: glycoprotein; Asn-25 glycosylated (numbering of the TNF-BP cDNA sequence, Leu-1 = first residue after the signal peptide)
notes: Soluble extracellular part of the human TNF receptor; The main form (about 80% of the protein) starts at Asp-12; also called natural TNF-BP
Take B1: the “affinity for TNF-β relative to its affinity for TNF-α” value is approximately 0.02 fold.
